The source of these data is patent US20240287138A1, “CYCLIC PEPTIDES FOR INHIBITING TNF RECEPTOR 1 ACTIVITY” (Merck Sharp & Dohme LLC, priority 2023, published 2024).

Numbered stars: 1 amine (or outer) side, 2 acyl side, 3 side chain; on linkers, the order of the positions; unused ones are H or OH. Bridge positions count the residues as written; N and C are the ends. Square brackets hold non-standard residues; d marks the D form. Ends that are not written are not given here. * marks the point of attachment. RbOHPhe4CONH2 = (2S,3R)-2-amino-3-(4-carbamoylphenyl)-3-hydroxypropanoic acid, NC(=O)c1ccc([C@@H](O[*:3])[C@H](N[*:1])C(=O)[*:2])cc1; bhcLeu = (1R,3S)-3-aminocyclopentane-1-carboxylic acid, O=C([C@@H]1CC[C@H](N[*:1])C1)[*:2]; Trp(βS-Me,7-OMe) = COc1cccc2c([C@H](C)[C@H](N)C(=O)O)c[nH]c12; dPro(trans-4-NMe2) = CN(C)[C@@H]1CN[C@@H](C(=O)O)C1; Trp(7-CN) = N#Cc1cccc2c(C[C@H](N)C(=O)O)c[nH]c12; Biotin = O=C1N[C@H]2[C@H](CS[C@H]2CCCCC(=O)*)N1; Phe(4-COOH) = N[C@@H](Cc1ccc(C(=O)O)cc1)C(=O)O; Trp(7-aza) = N[C@@H](Cc1c[nH]c2ncccc12)C(=O)O; Pip(4-aza) = O=C(O)[C@@H]1CNCCN1; hPhe = N[C@@H](CCc1ccccc1)C(=O)O; 4Pal = N[C@@H](Cc1ccncc1)C(=O)O; Cit = NC(=O)NCCC[C@H](N)C(=O)O; αMeS = C[C@](N)(CO)C(=O)O; NMeA = CN[C@@H](C)C(=O)O; Nle = CCCC[C@H](N)C(=O)O; AEA = NCCOCC(=O)O; Sar = CNCC(=O)O

For assay [1], the target named is T1, TNFR1 on THP-1 Lucia NF-κB reporter cells, P19438.
T1 chain: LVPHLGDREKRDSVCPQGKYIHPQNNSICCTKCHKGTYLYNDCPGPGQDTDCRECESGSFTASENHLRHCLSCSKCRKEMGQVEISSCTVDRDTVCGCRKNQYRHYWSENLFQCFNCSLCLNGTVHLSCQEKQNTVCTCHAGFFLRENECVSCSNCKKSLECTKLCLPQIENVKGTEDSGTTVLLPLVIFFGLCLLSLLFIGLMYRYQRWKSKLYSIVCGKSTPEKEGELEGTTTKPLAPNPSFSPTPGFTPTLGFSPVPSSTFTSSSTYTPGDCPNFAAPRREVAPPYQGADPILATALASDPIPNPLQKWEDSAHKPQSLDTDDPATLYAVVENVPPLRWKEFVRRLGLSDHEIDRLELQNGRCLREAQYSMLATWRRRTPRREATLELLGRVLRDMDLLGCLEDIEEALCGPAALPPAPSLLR
The assay is described as follows: cell-based or functional assay.

Assay [2] deals with T2, recombinant human TNFR1 extracellular domain (ECD), biotinylated via C-terminal Avi-tag, construct SEQ. ID NO. P2 (human).
T2 chain: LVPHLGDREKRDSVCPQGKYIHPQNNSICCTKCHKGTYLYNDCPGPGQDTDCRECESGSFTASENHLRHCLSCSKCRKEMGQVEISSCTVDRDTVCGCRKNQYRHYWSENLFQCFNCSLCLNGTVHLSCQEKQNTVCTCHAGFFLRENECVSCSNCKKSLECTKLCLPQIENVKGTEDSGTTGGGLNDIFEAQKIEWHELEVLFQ
The assay is described as follows: SPR (Cytiva 8K/8K+), peptide analyte over captured biotinylated human TNFR1 ECD.

The target of assay [3] is T3, human soluble TNFR1, C-terminally 6His-tagged (sTNFR1-6His, residues 1-211), SEQ. ID NO. P1 (human).
T3 chain: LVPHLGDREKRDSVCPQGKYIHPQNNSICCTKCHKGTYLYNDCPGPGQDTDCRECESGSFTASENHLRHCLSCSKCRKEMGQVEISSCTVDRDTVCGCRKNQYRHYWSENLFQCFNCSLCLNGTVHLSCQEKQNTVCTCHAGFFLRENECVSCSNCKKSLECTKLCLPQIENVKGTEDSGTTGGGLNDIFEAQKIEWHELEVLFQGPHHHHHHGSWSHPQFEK
The experiment in a line: TR-FRET displacement of biotinylated peptide SEQ ID NO. 1 from sTNFR1-6His; 4-parameter fit.

Assay [4] concerns the target T4, TNFR1 on THP-1 Lucia NF-κB cells, P19438.
T4 chain: T1 chain
The experiment in a line: cell-based or functional assay.

The target in assay [5] is T5, Recombinant human TNFR1 extracellular domain (ECD) protein, biotinylated via C-terminal avi-tag (human).
T5 chain: T2 chain
The assay is described as follows: SPR, peptide analyte on captured biotinylated TNFR1 ECD.

Assay [6] addresses T6, C'-terminally 6His-tagged human soluble TNFR1 (sTNFR1, residues 1-211) (human).
T6 chain: T3 chain
The assay is described as follows: TR-FRET displacement of biotinylated peptide SEQ ID NO. 1 from sTNFR1-6His.

For assay [7], the target named is human soluble TNFR1, C-terminally 6His-tagged (sTNFR1-6His, residues 1-211), SEQ. ID NO. P1 (human). The experiment in a line: TR-FRET displacement of biotinylated peptide SEQ ID NO. 1 from sTNFR1-6His; Morrison-based 5-parameter fit.
For assay [8], the target named is T7, TNFR1 on THP-1 Lucia NF-kB reporter cells, P19438.
T7 chain: T1 chain
The experiment in a line: cell-based or functional assay.

B1: SEQ ID NO. 289 (Example No. 289) macrocyclic peptide (peptide)
peptide: FYSWGNYWSYYGWCGEE
modifications: not checked
Take B1: the THP-1 IC50 in assay [1] stood at 36.4 nM. Further, the Kd in assay [2] was determined as 7.43 nM. The same molecule registered an IC50 in assay [3] of 9.87 nM.

B2: SEQ ID NO. 256 (peptide)
peptide: {CH2CO}-KYSW[dP][Cit][4Pal]W[αMeS][Phe(4-COOH)]Y[Sar]WC-NH2
modifications: thioether N-14
SMILES: CN1CC(=O)N[C@@H](Cc2c[nH]c3ccccc23)C(=O)N[C@H](C(N)=O)CSCC(=O)N[C@@H](CCCCN)C(=O)N[C@@H](Cc2ccc(O)cc2)C(=O)N[C@@H](CO)C(=O)N[C@@H](Cc2c[nH]c3ccccc23)C(=O)N2CCC[C@@H]2C(=O)N[C@@H](CCCNC(N)=O)C(=O)N[C@@H](Cc2ccncc2)C(=O)N[C@@H](Cc2c[nH]c3ccccc23)C(=O)N[C@@](C)(CO)C(=O)N[C@@H](Cc2ccc(C(=O)O)cc2)C(=O)N[C@@H](Cc2ccc(O)cc2)C1=O
In assay [4], B2 gave a THP-1 IC50 of 6.1 nM. For the same molecule, the Kd in assay [5] is 1.4 nM. For the same molecule, in assay [6], the IC50 turned out to be 1.84 nM.

B3: SEQ ID NO. 260 (peptide)
peptide: {CH2CO}-[hPhe]YSW[NMeA]N[4Pal]W[αMeS][Phe(4-COOH)]R[Sar]WC-NH2
modifications: thioether N-14
SMILES: C[C@H]1C(=O)N[C@@H](CC(N)=O)C(=O)N[C@@H](Cc2ccncc2)C(=O)N[C@@H](Cc2c[nH]c3ccccc23)C(=O)N[C@@](C)(CO)C(=O)N[C@@H](Cc2ccc(C(=O)O)cc2)C(=O)N[C@@H](CCCNC(=N)N)C(=O)N(C)CC(=O)N[C@@H](Cc2c[nH]c3ccccc23)C(=O)N[C@H](C(N)=O)CSCC(=O)N[C@@H](CCc2ccccc2)C(=O)N[C@@H](Cc2ccc(O)cc2)C(=O)N[C@@H](CO)C(=O)N[C@@H](Cc2c[nH]c3ccccc23)C(=O)N1C
Regarding B3, in assay [4], the THP-1 IC50 is 50.1 nM. Also, the Kd in assay [5] turned out to be 6 nM. The molecule also came in with an IC50 in assay [6] of 10.2 nM.

B4: SEQ ID NO. 242 (peptide)
peptide: {CH2CO}-KYSW[dP]Q[4Pal]W[αMeS][Phe(4-COOH)]Y[Sar]WC-NH2
modifications: thioether N-14
SMILES: CN1CC(=O)N[C@@H](Cc2c[nH]c3ccccc23)C(=O)N[C@H](C(N)=O)CSCC(=O)N[C@@H](CCCCN)C(=O)N[C@@H](Cc2ccc(O)cc2)C(=O)N[C@@H](CO)C(=O)N[C@@H](Cc2c[nH]c3ccccc23)C(=O)N2CCC[C@@H]2C(=O)N[C@@H](CCC(N)=O)C(=O)N[C@@H](Cc2ccncc2)C(=O)N[C@@H](Cc2c[nH]c3ccccc23)C(=O)N[C@@](C)(CO)C(=O)N[C@@H](Cc2ccc(C(=O)O)cc2)C(=O)N[C@@H](Cc2ccc(O)cc2)C1=O
In assay [4], B4 had a THP-1 IC50 of 3 nM. In addition, in assay [5], the Kd was 0.3 nM. This molecule also showed an IC50 in assay [6] of 1.21 nM.

B5: SEQ ID NO. 287 (Example No. 287) macrocyclic peptide (peptide)
peptide: cyclo([bhcLeu][Nle][4Pal][Pip(4-aza)][Trp(7-aza)][dPro(trans-4-NMe2)]N[Phe(4-COOH)][Trp(7-CN)][αMeS][Phe(4-COOH)][RbOHPhe4CONH2][Sar][Trp(βS-Me,7-OMe)])
SMILES: CCCC[C@@H]1NC(=O)[C@@H]2CC[C@@H](C2)NC(=O)[C@H]([C@@H](C)c2c[nH]c3c(OC)cccc23)NC(=O)CN(C)C(=O)[C@H]([C@H](O)c2ccc(C(N)=O)cc2)NC(=O)[C@H](Cc2ccc(C(=O)O)cc2)NC(=O)[C@](C)(CO)NC(=O)[C@H](Cc2c[nH]c3c(C#N)cccc23)NC(=O)[C@H](Cc2ccc(C(=O)O)cc2)NC(=O)[C@H](CC(N)=O)NC(=O)[C@H]2C[C@H](N(C)C)CN2C(=O)[C@H](Cc2c[nH]c3ncccc23)NC(=O)[C@@H]2CNCCN2C(=O)[C@H](Cc2ccncc2)NC1=O
As for B5, the Kd^app in assay [7] came to 0.22 nM.

B6: SEQ ID NO. 1 (peptide)
peptide: {CH2CO}-FYSW[Sar]NYWSYY[Sar]WCG[AEA]K(Biotin)
modifications: thioether N-14
B6 had a THP-1 IC50 in assay [8] of 227 nM.
